Reference: patent US20260184814A1, “BROADLY NE[…] INFLUENZA NEURAMINIDASE” (priority 2022, published 2026)

How the values were obtained:
[1] = target: N2 A/Switzerland/8060/2017 (82-469) (Influenza A virus); assay: SPR (Biacore), NA on anti-Avi chip, 1:1 model; NA code NA-16 (+glyc245)
[2] = target: B/Brisbane/602008 or 33/2008 (Victoria) (Influenza B virus); assay: SPR (Biacore), NA on anti-Avi chip, 1:1 model; NA code BNA-6
[3] = target: N2 A/Hong_Kong/2671/2019 (82-469) (Influenza A virus); assay: SPR (Biacore), NA on anti-Avi chip, 1:1 model; NA code NA-18 (+glyc245)
[4] = target: N9 Hong Kong/56/2015 (Influenza A virus); assay: SPR (Biacore), NA on anti-Avi chip, 1:1 model; NA code N9
[5] = target: B/Perth/211/2011 (Influenza B virus); assay: SPR (Biacore), NA on anti-Avi chip, 1:1 model; NA code BNA-2
[6] = target: A/N1 Vietnam/1203/2004 (Influenza A virus); assay: SPR (Biacore), NA on anti-Avi chip, 1:1 model; NA code NA-3
[7] = target: IBV neuraminidase from B/Malaysia/2506/2004 (Victoria) (Influenza B virus B/Malaysia/2506/2004); assay: SPR (Biacore), NA on anti-Avi chip, 1:1 model; NA code BNA-7
[8] = target: N2 neuraminidase from H3N2 A/Tanzania/205/2010 (Influenza A virus A/Tanzania/205/2010 (H3N2))
[9] = target: N2 neuraminidase from A/South Australia/34/2019 (Influenza A virus A/South Australia/34/2019); assay: SPR (Biacore), NA on anti-Avi chip, 1:1 model; NA code NA-17, 82-469 (+glyc245)
[10] = target: B/Massachusetts/02/2012(Yamagata) (Influenza B virus); assay: SPR (Biacore), NA on anti-Avi chip, 1:1 model; NA code BNA-3
[11] = target: N2 neuraminidase from H3N2 A/Tanzania/205/2010 (Influenza A virus A/Tanzania/205/2010 (H3N2)); assay: SPR, 1:1 binding; NA-5 "-glyc245"
[12] = target: N2 neuraminidase from A/South Australia/34/2019 (Influenza A virus A/South Australia/34/2019); assay: SPR; NA-17; parameters: unit not given beside the values
[13] = target: N2 neuraminidase from H3N2 A/Tanzania/205/2010 (Influenza A virus A/Tanzania/205/2010 (H3N2)); assay: SPR; NA-5; parameters: unit not given beside the values
[14] = target: N2 A/Hong_Kong/2671/2019 (82-469) (Influenza A virus); assay: SPR; NA-18; parameters: unit not given beside the values
[15] = target: N2 A/Hong_Kong/2671/2019 (82-469) (Influenza A virus); assay: SPR, 1:1 binding; NA-18 "+glyc245"
[16] = target: N2 neuraminidase from A/South Australia/34/2019 (Influenza A virus A/South Australia/34/2019); assay: SPR, 1:1 binding; NA-17 "+glyc245"
N9 NA (FIGS. 96A-96C) [17] = assay: Bio-Layer Interferometry (BLI); printed as kdis
N9 NA (FIGS. 96A-96C) [18] = assay: Bio-Layer Interferometry (BLI)
N9 NA (FIGS. 96A-96C) [19] = assay: Bio-Layer Interferometry (BLI); printed as ka

Binder | fold-change in affinity compared to FNI9-v1.1 [1] | fold-change in affinity compared to FNI9-v1.1 [2] | fold-change in affinity compared to FNI9-v1.1 [3] | fold-change in affinity compared to FNI9-v1.1 [4] | fold-change in affinity compared to FNI9-v1.1 [5] | fold-change in affinity compared to FNI9-v1.1 [6] | fold-change in affinity compared to FNI9-v1.1 [7] | fold-change in affinity compared to FNI9-v1.1 [8] | fold-change in affinity compared to FNI9-v1.1 [9] | fold-change in affinity compared to FNI9-v1.1 [10] | Kd [11] [nM] | KD compared to v1.1 [12] | KD compared to v1.1 [13] | KD compared to v1.1 [14] | Kd [15] [nM] | Kd [16] [nM] | koff (N9 NA (FIGS. 96A-96C) [17]) [s⁻¹] | Kd (N9 NA (FIGS. 96A-96C) [18]) [nM] | kon (N9 NA (FIGS. 96A-96C) [19]) [M⁻¹ s⁻¹]
FNI9-v4.1 (antibody, V domains shown) VH: QVHLVQSGAEVKEPGSSVTVSCKASGGSFSNQAISWVRQAPGQGLEWMGGIFPISGTPTSAQRFQGRVTFTADESTTTVYMDLSSLRSDDTAVYYCARAGSDYFNRDLGWENYYFASWGQGTLVTVSS VL: EIVMTQSPATLSLSSGERATLSCRASRSVSSNLAWYQQKPGQAPRLLIYDASTRATGFSARFAGSGSGTEFTLTISSLQSEDSAIYYCQQYNNWPPWTFGQGTKVEIK | 1.06 | 0.78 | 1.85 | 1.31 | 1.48 | 1.06 | 1.44 | 1.76 | 1.3 | 1.24 | – | – | – | – | – | – | – | – | –
Fab FNI9-v8.1 (Fab, V domains shown) VH: QVHLVQSGAEVKEPGSSVTVSCKASGGTFNNQAISWVRQAPGQGLEWMGGIFPISGTPTSAQRFQGRVTFTADESTTTVYMDLSSLRSDDTAVYYCARAGSDYFNRDLGWENYYFASWGQGTLVTVSS VL: EIVMTQSPATLSLSSGERATLSCRASRSVSSNLAWYQQKPGQAPRLLIYDASTRATGFSARFAGSGSGTEFTLTISSLQSEDSAIYYCQQYNNWPPWTFGQGTKVEIK | – | – | – | – | – | – | – | – | – | – | 2.57 | 0.78 | 0.78 | 0.83 | 8.64 | 99.5 | – | – | –
FNI9-v9.1 (antibody, V domains shown) VH: QVHLVQSGAEVKEPGSSVTVSCKASGGSFNNQAISWVRQAPGQGLEWMGGIFPISGTATSAQRFQGRVTITADESTTTVYMDLSSLRSDDTAVYYCARAGSDYFNRDLGWENYYFASWGQGTLVTVSS VL: EIVMTQSPATLSLSSGERATLSCRASRSVSSNLAWYQQKPGQAPRLLIYDASTRATGFSARFAGSGSGTEFTLTISSLQSEDSAIYYCQQYNNWPPWTFGQGTKVEIK | 0.93 | 0.81 | 1.15 | 8.43 | 1.59 | 0.93 | 1.53 | 0.81 | 2.99 | 0.92 | – | – | – | – | – | – | 8.66e-05 | 0.19 | 456000
FNI9-v8.1 (antibody, V domains shown) VH: QVHLVQSGAEVKEPGSSVTVSCKASGGTFNNQAISWVRQAPGQGLEWMGGIFPISGTPTSAQRFQGRVTFTADESTTTVYMDLSSLRSDDTAVYYCARAGSDYFNRDLGWENYYFASWGQGTLVTVSS VL: EIVMTQSPATLSLSSGERATLSCRASRSVSSNLAWYQQKPGQAPRLLIYDASTRATGFSARFAGSGSGTEFTLTISSLQSEDSAIYYCQQYNNWPPWTFGQGTKVEIK | 0.98 | 0.92 | 0.4 | 1.1 | 1.03 | 1.98 | 1.35 | 0.98 | 1.2 | 1.17 | – | – | – | – | – | – | < 1e-07 | < 0.001 | 463000
Fab FNI9-v4.1 (Fab, V domains shown) VH: QVHLVQSGAEVKEPGSSVTVSCKASGGSFSNQAISWVRQAPGQGLEWMGGIFPISGTPTSAQRFQGRVTFTADESTTTVYMDLSSLRSDDTAVYYCARAGSDYFNRDLGWENYYFASWGQGTLVTVSS VL: EIVMTQSPATLSLSSGERATLSCRASRSVSSNLAWYQQKPGQAPRLLIYDASTRATGFSARFAGSGSGTEFTLTISSLQSEDSAIYYCQQYNNWPPWTFGQGTKVEIK | – | – | – | – | – | – | – | – | – | – | 5.35 | 1.04 | 1.63 | 1.91 | 19.9 | 133 | – | – | –
